# Assay results taken from patent US20180280504A1, “GLYCAN-INTERACTING COMPOUNDS AND METHODS OF USE” (SIAMAB THERAPEUTICS, INC., priority 2014, published 2018).
# Columns and labels:
# [1] = test system: MDA-MB-231 parental cells (MDA-STn−); experiment: Flow cytometry-based analysis of antibody binding, parental cells; set-up: species or system human
# Method: Flow cytometry-based analysis is carried out to elucidate the curve-dose response for binding of antibodies to cell surface antigens. For these analyses, three cell lines are employed.
# MDA-MB-231 cells are human breast cancer cells. They are grown in Earle's Minimum Essential Medium supplemented with 10% fetal calf serum (FCS), 100 μg/ml penicillin, 100 UI/ml streptomycin and 45 μg/ml gentamycin. MCF-7 cells are also human breast cancer cells and are grown under the same conditions as MDA-MB-231 cells. Stably transfected versions of MDA-MB-231 and MCF-7 cells (clone TAH3.P10 for MDA-MB-231 cells and clone A12.1 for MCF-7 cells) that over express GalNAc α2,6-sialyltransferase (ST6GalNAc 1,) are also cultured under the same conditions with the exception of an added 1 mg/ml of G418 to support cells expressing the transgene. ST6GalNAc 1 is an enzme capable of sialylating GalNAc. […]
# For analysis, cells are harvested using StemPro Accutase (Life Technologies, Carlsbad, Calif.) and washed with PBS comprising 5% FBS before pelleting by light centrifugation. Cell numbers and viability are determined by trypan blue dye exclusion analysis and cell concentrations are adjusted to 5×10^6 cells/ml in PBS with 5% FBS. […] Cells are combined with 50 μl solutions of antibody being analyzed or control antibodies and incubated for 1 hour at 4° C. […]
# MDA-MD-231 STn+ cells = experiment: Fluorescence microscopy of ALEXA FLUOR 488-S3F binding and internalization, STn+ cells; type: cell-based, human
# Method: (§1) To analyze the internalization of antibodies by fluorescence microscopy, the following procedure was carried out. MDA-MD-231 STn− cells and MDA-MD-231 STn+ cells were cultured in Eagles minimum essential medium containing 10% fetal calf serum, 100 μg/ml penicillin, 100 UI/ml streptomycin, 45 μg/ml gentamycin, as well as 1 mg/ml G418 for STn+ cells. Cells were sub-cultured by treatment with Accutase buffer and seeded in microscope chamber slides at 10,000 cells/chamber in the case of STn− cells and 20,000 cells/chamber in the case of STn+ cells. All cells were cultured overnight at 37° C. Cells were subsequently incubated with either 1.5, 5 or 10 μg/ml S3F conjugated with ALEXA FLUOR® 488 dye (Thermo Fisher Scientific, Pittsburgh, Pa.) in complete media at 4° C. for 1 hour. Cells were then washed with ice-cold PBS in order to remove antibodies that were not bound to the cell surface. Complete media was then administered to each chamber and the cells were incubated at 37° C. for either 0, 15, 30 or 60 minutes in order to allow internalization of any surface-bound antibodies.
# (§2) Following each time point, cells were washed twice with PBS in order to remove unbound antibodies. […] Cells were visualized the following day by analysis on a Nikon Eclipse Ti fluorescence microscope.
# MDA-MD-231 STn− cells = experiment: Fluorescence microscopy of ALEXA FLUOR 488-S3F binding and internalization, STn− cells; type: cell-based, human
# Method: as §1, §2
# [2] = Glycan array, Tn and other glycans; type: binding; conditions: glycan microarray
# Method: Optimized glycan arrays comprise 71 chemically synthesized and well-defined glycans, most of which comprise Neu5Ac and Neu5Gc glycan pairs.
# 300 ml of epoxy blocking buffer is prepared by combining 15 ml of 2 M Tris buffer (pH 8) with 0.9 ml of 16.6 M ethanolamine and 284.1 ml of distilled water. The solution was brought to a final pH of 9.0 with HCl. The solution is filtered using a 0.2 μM nitrocellulose membrane. The epoxy buffer solution as well as 1 L of distilled water are pre-warmed to 50° C. Glass slides are arranged in a slide holder and quickly submerged in a staining tub with the warmed epoxy blocking buffer. Slides are incubated in the epoxy blocking buffer for 1 hour at 50° C. with periodic shaking to deactivate epoxy binding sites. Next, slides are rinsed and blocked with PBS with 1% OVA at 25° C. for one hour. Serum samples with polyclonal antibodies (1:1000) or purified monoclonal antibodies (1 ug/mL), are diluted in PBS with 1% OVA and added to the glycan array for one hour at 25° C. After extensive washing, binding of antibodies are detected by incubating glycan microarray slides with Cy3-conjugated anti-mouse IgG (Jackson Immunoresearch, West Grove, Pa.) for one hour. Slides are then washed extensively, dried and scanned with a Genepix 4000B scanner (Laser at 100%; gain at 350; 10 μm pixels). […]
# [3] = 488-S3F conjugate at 1.5, 5, 10 μg/ml, 4° C.
molecule,measurement,setting,value
"8C11: anti-STn mouse monoclonal, IgG2b κ, from mouse #4407; VH SEQ ID NO: 8, VL SEQ ID NO: 9 (antibody, V domains shown) VH: QVQLKESGPGLVAPSQSLSITCTVSGFSLTSYGVSWVRQPPGKGLEWLGVIWGDGSTNYHSALISRLIISKDNSKSQVFLKLNSLQTDDTATYYCTKGFTYWGQGTLVTVSA VL: QIVLTQSPAIMSASPGEKVTMTCSASSSVSYMHWYQQKSGTSPKRWIFDTSKLASGVPARFSGSGSGTSYSLTISSMEAEDAATYYCQQWSSNLLTFGAGTKLELK",binding to MDA parental cells lacking STn,[1],No binding
"S3F: 3F1 variable domains combined with IgG2a constant domains; heavy chain SEQ ID NO: 63, light chain SEQ ID NO: 64 (antibody) heavy: QVQLQQSDAELVKPGASVKISCKASGYTFTDHAIHWVKQKPEQGLDWIGYISPGNGDIKYNEKFKDKVTLTADKSSSTACMHLNSLTSEDSAVYFCKRSLLALDYWGQGTTLTVSSAKTTAPSVYPLAPVCGDTTGSSVTLGCLVKGYFPEPVTLTWNSGSLSSGVHTFPAVLQSDLYTLSSSVTVTSSTWPSQSITCNVAHPASSTKVDKKIEPRGPTIKPCPPCKCPAPNLLGGPSVFIFPPKIKDVLMISLSPIVTCVVVDVSEDDPDVQISWFVNNVEVHTAQTQTHREDYNSTLRVVSALPIQHQDWMSGKEFKCKVNNKDLPAPIERTISKPKGSVRAPQVYVLPPPEEEMTKKQVTLTCMVTDFMPEDIYVEWTNNGKTELNYKNTEPVLDSDGSYFMYSKLRVEKKNWVERNSYSCSVVHEGLHNHHTTKSFSRTPGK light: DIVMTQSHKFMSTSVGDRVSITCKASQDVGTNIAWYQQKPGRSPKVLIYSASTRHTGVPDRFTGSGSGTDFTLTISNVQSEDLTDYFCQQYSSFPLTFGVGTKLELKRADAAPTVSIFPPSSEQLTSGGASVVCFLNNFYPKDINVKWKIDGSERQNGVLNSWTDQDSKDSTYSMSSTLTLTKDEYERHNSYTCEATHKTSTSPIVKSFNRNEC",internalization by STn+ cells,"MDA-MD-231 STn+ cells; 37° C. 15-60 min, acid wash",capable of being internalized by STn+ cells
same,binding to the surface of STn+ cells,MDA-MD-231 STn+ cells; [3],binds the surface of STn+ cells
same,internalization by STn− cells,"MDA-MD-231 STn− cells; 37° C. 15-60 min, acid wash",not efficiently internalized by STn− cells
same,binding to the surface of STn− cells,MDA-MD-231 STn− cells; [3],does not bind the surface of STn− cells
"18C7: anti-STn mouse monoclonal, IgG2c κ, from mouse #4436; VH SEQ ID NO: 4, VL SEQ ID NO: 5 (antibody, V domains shown) VH: QVTLKESGPGILQPSQTLSLTCSFSGFSLSTFGMGVGWIRQPSGKGLEWLAHIWWDDDKYYNPALKSRLTISKDTSKNQVFLKIANVDTADTATYYCARIAYYYGSERDYWGQGTTLTVSS VL: QIVLTQSPAIMSASPGEKVTMTCSASSSISYMHWYHQKPGTSPKRWIYDTSKLASGVPARFSGSGSGTSYSLTISSMEAEDAATYYCHQRSSYTFGGGTKLEIKR",binding to Tn antigen or other glycans,[2],No binding
